# According to the supplement of paper PMC7877785:
# ± gives the uncertainty stated by the source.
# Experiment: self-splicing fitness, log relative to wild type (ln ratio); higher = more splicing; Tetrahymena group I intron in knt gene, E. coli kanamycin selection, DiMSum; sequences stand for … in CUCUCU…GGAGGGAAAAGUUAUCAGGCAUGCACCUGGUAGCUAGUCUUUAAACCAAUAGAUUGCAUCGGUUUAAAAGGCAAGACCGUCAAAUUGCGGGAAAGGGGUCAACAGCCGUUCAGUACCAAGUCUCAGGGGAAACUUUGAGAUGGCCUUGCAAAGGGUAUGGUAAUAAGCUGACGGACAUGGUCCUAACCACGCAGCCAAGUCCUAAGUCAACAGAUCUUCUGUUGAUAUGGAUGCAGUUCACAGACUAAAUGUCGGUCGGGGAAGAUGUAUUCUUCUCAUAAGAUAUAGUCGGACCUCUCCUUAAUGGGAGCUAGCGGAUGAAGUGAUGCAACACUGGAGCCGCUGGGAACUAAUUUGUAUGCGAAAGUAUAUUGAUUAGUUUUGGAGUACUCGUGGUCG
# Summary of the method: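 DiMSum derived fitness as the error-weighted combination of fold changes across replicates, kanamycin versus no kanamycin, normalised to wild type. E. coli BL21(DE3) held the library, which randomised all eight P1ex-region intron nucleotides within the knt kanamycin-resistance gene on pET-22b(+). Six replicate transformations grew overnight at 37°C or 30°C on LB agar with or without 25 μg/mL kanamycin, also containing 100 μg/mL carbenicillin, 50 μM IPTG and 0.2% rhamnose, and pooled colonies were amplicon-sequenced on an Illumina HiSeq 2500.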
Sequence,self-splicing fitness (ln) (37 °C),self-splicing fitness (ln) (30 °C)
CUGGAGCAAUAUUACGCCUC,-1.07 ± 0.47,–
CUGGAGCAAUAUUACGCGAG,-2.47 ± 0.26,-3.24 ± 0.23
CUGGAGCAAUAUUACGCGCU,–,-3.54 ± 0.47
CUGGAGCAAUAUUACGCGUG,0.32 ± 0.12,-3.27 ± 0.15
CUGGAGCAAUAUUACGCUGU,-3.04 ± 0.48,–
CUGGAGCAAUAUUACGGAGG,-2.18 ± 0.36,–
CUGGAGCAAUAUUACGGCAG,-1.94 ± 0.16,-2.77 ± 0.15
CUGGAGCAAUAUUACGGCCU,-1.85 ± 0.3,-2.88 ± 0.38
CUGGAGCAAUAUUACGGGCG,-0.434 ± 0.12,-1.16 ± 0.12
CUGGAGCAAUAUUACGGUGG,-1.93 ± 0.12,-3.55 ± 0.14
CUGGAGCAAUAUUACGGUGU,-2.02 ± 0.2,-4.16 ± 0.36
CUGGAGCAAUAUUACGUACG,0.504 ± 0.12,-0.531 ± 0.089
CUGGAGCAAUAUUACGUCAC,-2.53 ± 0.39,-2.63 ± 0.39
CUGGAGCAAUAUUACGUGAA,-2.01 ± 0.16,-3.42 ± 0.22
CUGUAGCAAUAUUACGAAUA,-2.82 ± 0.48,-2.54 ± 0.37
CUGUAGCAAUAUUACGACCG,0.0218 ± 0.25,-0.99 ± 0.34
CUGUAGCAAUAUUACGAGUG,0.314 ± 0.11,-0.807 ± 0.07
CUGUAGCAAUAUUACGAUCG,0.548 ± 0.21,0.206 ± 0.16
CUGUAGCAAUAUUACGAUGC,–,-2.62 ± 0.17
CUGUAGCAAUAUUACGCAUG,-0.55 ± 0.13,-1.06 ± 0.1
CUGUAGCAAUAUUACGCGCA,-2.52 ± 0.41,-2.23 ± 0.39
CUGUAGCAAUAUUACGCGUG,-0.0484 ± 0.12,-1.41 ± 0.1

Sequence,self-splicing fitness (ln) (37 °C),self-splicing fitness (ln) (30 °C)
CUGUAGCAAUAUUACGCUAU,-0.73 ± 0.29,–
CUGUAGCAAUAUUACGCUGU,-2.53 ± 0.27,-3.78 ± 0.36
CUGUAGCAAUAUUACGGAGA,-3.56 ± 0.34,-2.5 ± 0.21
CUGUAGCAAUAUUACGGAGC,-2.55 ± 0.49,–
CUGUAGCAAUAUUACGGCAG,-1.32 ± 0.24,-3.85 ± 0.33
CUGUAGCAAUAUUACGGCUC,-2.13 ± 0.29,-2.55 ± 0.19
CUGUAGCAAUAUUACGGGAG,-1.67 ± 0.13,-4.83 ± 0.29
CUGUAGCAAUAUUACGGGGC,-2.14 ± 0.19,-4.95 ± 0.36
CUGUAGCAAUAUUACGGUAA,-2.3 ± 0.26,-3.63 ± 0.24
CUGUAGCAAUAUUACGGUCA,-2.63 ± 0.34,-2.29 ± 0.25
CUGUAGCAAUAUUACGUAAC,-2.24 ± 0.5,-3.09 ± 0.46
CUGUAGCAAUAUUACGUGCC,-2.21 ± 0.24,-3.49 ± 0.35
CUGUAGCAAUAUUACGUGUA,-2.05 ± 0.21,-4.12 ± 0.3
CUGUAGCAAUAUUACGUUUU,-2.23 ± 0.19,-4.23 ± 0.35
CUUAAGCAAUAUUACGAGAA,-2.91 ± 0.47,-2.01 ± 0.34
CUUAAGCAAUAUUACGAUAU,-1.4 ± 0.17,-3.29 ± 0.2
CUUAAGCAAUAUUACGCAGG,-2.96 ± 0.32,-3.05 ± 0.21
CUUAAGCAAUAUUACGCAGU,-2.56 ± 0.28,-3.71 ± 0.46
CUUAAGCAAUAUUACGCCCG,0.386 ± 0.3,-1.46 ± 0.28
CUUAAGCAAUAUUACGGCAU,-3.67 ± 0.34,-3.68 ± 0.23
CUUAAGCAAUAUUACGGGAC,-1.26 ± 0.13,-3.6 ± 0.28
CUUAAGCAAUAUUACGGGGC,-2.63 ± 0.21,-3.68 ± 0.2
